Our source for the Inhibitory Activity, IC50 (pseudovirus infection of HuH7, luciferase) and IC50, 2019-nCoV live virus (plaque reduction assay, VERO-E6) values is US20220409694A1, “POLYPEPTIDE, AND PREPARATION METHOD THEREFOR AND USE THEREOF” (SHANXI JINBO BIO-PHARMACEUTICAL CO., LTD., priority 2020, published 2022).

Common to all, as to assay: cell-based or functional assay
The target in assay [1] is SARS-CoV S protein (pcDNA3.1-SARS-CoV-S, on pseudovirus) (SARS-CoV) (UniProt P59594).
Assay [2] addresses 2019-nCoV S protein (2019-nCoV-S, as encoded in pAAV-IRES-EGFP-2019-nCoV-S / pcDNA3.1) (2019-nCoV (SARS-CoV-2)) (UniProt P0DTC2).
Assay [3] addresses S protein of live 2019-nCoV (SARS-CoV-2) virus (2019-nCoV (SARS-CoV-2)) (UniProt P0DTC2).
In assay [4] the target is WIV1-CoV S protein (pcDNA3.1-WIV1-CoV-S, on pseudovirus) (WIV1-CoV (SARS-like virus from bats)).
Assay [5] deals with Rs3367-CoV S protein (pcDNA3.1-Rs3367-CoV-S, on pseudovirus) (Rs3367-CoV (SARS-like virus from bats)).

As to EK1-chol (peptide), the Inhibitory Activity, IC50 (pseudovirus infection of HuH7, luciferase) in assay [1] came out at 10 nM; in assay [2] it was 20 nM; in assay [4], 40 nM; in assay [5], 30 nM. The substance also displayed an IC50, 2019-nCoV live virus (plaque reduction assay, VERO-E6) in assay [3] of 36.5 nM.
Consider EK1-plam (peptide), for which the Inhibitory Activity, IC50 (pseudovirus infection of HuH7, luciferase) in assay [1] worked out at 170 nM; in assay [2] it was 360 nM; in assay [4] it was 100 nM; in assay [5], 130 nM. The same substance registered an IC50, 2019-nCoV live virus (plaque reduction assay, VERO-E6) in assay [3] of 436 nM.
